Several values for one entry are separate records, joined by “and”; a condition that tells them apart may be missing. Equal values may be shown once.
How the values were obtained:
[1] = target: CRISPR-associated adenosine deaminase 1 (Cad1); assay: ITC; co-crystal structure at […] Å; type: binding, Bacteroidales bacterium
[2] = target: CRISPR-associated adenosine deaminase 1 (Cad1), hexa-histidyl tagged, full length (unknown Bacteroidales bacterium); assay: SEC-MALS; Superdex 200 10/300 increase column in buffer A (25 mM Hepes pH 8, 200 mM NaCl, 2 mM beta-mercaptoethanol, 5% glycerol); full-length Cad1 at 20 uM, apo and also after incubation with cA4 or cA6, ATP and MgCl2 (1:5:50:50) at 37 C
[3] = target: Cad1 E408A mutant (unknown Bacteroidales bacterium); assay: as above
[4] = target: Cad1 K342A mutant (unknown Bacteroidales bacterium); assay: as above
[5] = target: Cad1 W349A mutant (unknown Bacteroidales bacterium); assay: as above
[6] = target: hexa-histidyl-tagged CARF domain of Cad1 (residues 1-185) (unknown Bacteroidales bacterium); assay: as above

Compound: Nc1ncnc2c1ncn2[C@@H]1O[C@@H]2COP(=O)(O)O[C@H]3[C@@H](O)[C@H](n4cnc5c(N)ncnc54)O[C@@H]3COP(=O)(O)O[C@H]3[C@@H](O)[C@H](n4cnc5c(N)ncnc54)O[C@@H]3COP(=O)(O)O[C@H]3[C@@H](O)[C@H](n4cnc5c(N)ncnc54)O[C@@H]3COP(=O)(O)O[C@H]3[C@@H](O)[C@H](n4cnc5c(N)ncnc54)O[C@@H]3COP(=O)(O)O[C@H]3[C@@H](O)[C@H](n4cnc5c(N)ncnc54)O[C@@H]3COP(=O)(O)O[C@H]2[C@H]1O [cA6]
- Kd [1]: 30 nM

Compound: CRISPR-associated adenosine deaminase 1 (Cad1), hexa-histidyl tagged, full length (enzyme)
- stoichiometry N [2]: 6 and 2

Compound: Cad1 E408A mutant (enzyme)
- stoichiometry N [3]: 6

Compound: Cad1 K342A mutant (enzyme)
- stoichiometry N [4]: 6

Compound: Cad1 W349A mutant (enzyme)
- stoichiometry N [5]: 2

Compound: hexa-histidyl-tagged CARF domain of Cad1 (residues 1-185) (domain or fragment)
- stoichiometry N [6]: 2
